Reference: patent publication US20230265192A1 (GIGAGEN, published 2023)

Target: T1, recombinant human CTLA-4-Fc (7268-CT, R&D Systems) (human, UniProt P16410 36-162)
T1 construct: bought; also called rhCTLA-4-Fc; rhCTLA4-Fc; Fc part of the bought chimera not given
Assay: blocking ELISA, coated CTLA-4-Fc, competitor His-CD86
Protocol: Table 24. […] Summary of blocking ELISA data from FIG. 13B. […] The data were then analyzed and fit by nonlinear regression.
ELISA plates (Nunc, MaxiSorp ELISA plates, flat bottom, uncoated, BioLegend, San Diego, Calif., USA) were coated with recombinant human CTLA-4-Fc (7268-CT, R&D Systems, Minneapolis, Minn., USA) at 1 μg/mL overnight at 4° C. Plates were then blocked with 5% milk in phosphate buffered saline with tween 20 (PBST) for 1 hour at room temperature. A titration series of the indicated mAbs was then added to the plates and then the plates were incubated for 1 hour at room temperature to allow mAb binding. Excess, unbound mAb was removed by washing with PBST. […] After incubation for 1 hour at room temperature, the plates were washed to remove unbound ligand. Bound ligand was detected with a horseradish peroxidase (HRP)-conjugated anti-His antibody (652504, BioLegend, San Diego, Calif., USA). After incubation for 1 hour at room temperature and washing, the plates were developed with 3,3′,5,5′-Tetramethylbenzidine (TMB) substrate (34028, Pierce, Waltham, Mass., USA). […] Absorbance at 450 nm was read using a Spectramax i3x plate reader (Molecular Devices. San Jose, Calif., USA). Half maximal inhibitory concentration (IC50) values were calculated by plotting absorbance versus the log of concentration using Prism (GraphPad, San Diego, Calif., USA).

T1 sequence (P16410 36-162): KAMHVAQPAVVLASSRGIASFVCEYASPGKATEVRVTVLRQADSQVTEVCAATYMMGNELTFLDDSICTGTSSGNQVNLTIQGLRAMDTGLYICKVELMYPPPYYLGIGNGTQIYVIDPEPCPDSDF

B1: antibody A5 (L5H5) (antibody, V domains shown)
VH: QVQLVESGGGVVQPGRSLRLSCAASGFTFSSYGMHWVRQAPGKGLEWVAVIWYDGNNKYYADSVKGRFTISRDNSKNTLYLQMYSLRAEDTAVYYCARGGILAAGIFDYWGQGTLVTVSS
VL: EIVLTQSPGTLSLSPGDRATLSCRASQSGSSSYLAWYQQKPGQAPRLLIYGASSRATGIPDRFSGSGSGTDFTLTISRLEPEDFAVYYCQQYGTSPFTSGPGTKVDIK
notes: also called aCTLA-4.28; CTLA4.A5
- IC50: 0.12 µg/mL
